B1: ODC ΔN 4KR (enzyme)
chain: DCHFLDEGFTAKDILDQKINEVSSSDDKDAFYVADLGDILKKHLRWLKALPRVTPFYAVKCNDSRAIVRTLAATGTGFDCASRTEIQLVQSLGVPPERIIYANPCKQVSQIRYAANNGVQMMTFDSEVELMKVARAHPKAKLVLRIATDDSKAVCRLSVKFGATLRTSRLLLERAKELNIDVVGVSFHVGSGCTDPETFVQAISDARCVFDMGAEVGFSMYLLDIGGGFPGSEDVKLKFEEITGVINPALDKYFPSDSGVRIIAEPGRYYVASAFTLAVNIIAKKIVLKEQTGSDDEDESSEQTFMYYVNDGVYGSFNCILYDHAHVKPLLQKRPKPDEKYYSSSIWGPTCDGLDRIVERCDLPEMHVGDWMLFENMGAYTVAAASTFNGFQRPTIYYVMSGPAWQLMQQFQNPDFPPEVEEQDASTLPVSCAWESGMKRHRAACASASIN
B2: His6-ODC-Ctag (human Ornithine Decarboxylase) (enzyme)
chain: NNFGNEEFDCHFLDEGFTAKDILDQKINEVSSSDDKDAFYVADLGDILKKHLRWLKALPRVTPFYAVKCNDSKAIVKTLAATGTGFDCASKTEIQLVQSLGVPPERIIYANPCKQVSQIKYAANNGVQMMTFDSEVELMKVARAHPKAKLVLRIATDDSKAVCRLSVKFGATLRTSRLLLERAKELNIDVVGVSFHVGSGCTDPETFVQAISDARCVFDMGAEVGFSMYLLDIGGGFPGSEDVKLKFEEITGVINPALDKYFPSDSGVRIIAEPGRYYVASAFTLAVNIIAKKIVLKEQTGSDDEDESSEQTFMYYVNDGVYGSFNCILYDHAHVKPLLQKRPKPDEKYYSSSIWGPTCDGLDRIVERCDLPEMHVGDWMLFENMGAYTVAAASTFNGFQRPTIYYVMSGPAWQLMQQFQ

Molecular target: AviTag-His6-OAZ-GSY-SPM-Ctag (wt, with C175A) (human | Neisseria meningitidis …, UniProt Q9JYV5 414-657, biotin on the AviTag)
Assay: SPR

Row | Binder | Kd [nM] | koff [s⁻¹]
1 | B1 | 22 | 0.0024
2 | B2 | – | 0.0028

Reference: publication PMC7846742 (2021)
